Tests used:
[1] = molecular target: T1, Bdellovibrio bacteriovorus proline utilization A (BbPutA) (Bdellovibrio bacteriovorus, UniProt Q6MNK1); assay: X-ray crystal structure, […] Å, of the covalently inactivated enzyme; assay type: binding
T1 sequence (Q6MNK1 1-982): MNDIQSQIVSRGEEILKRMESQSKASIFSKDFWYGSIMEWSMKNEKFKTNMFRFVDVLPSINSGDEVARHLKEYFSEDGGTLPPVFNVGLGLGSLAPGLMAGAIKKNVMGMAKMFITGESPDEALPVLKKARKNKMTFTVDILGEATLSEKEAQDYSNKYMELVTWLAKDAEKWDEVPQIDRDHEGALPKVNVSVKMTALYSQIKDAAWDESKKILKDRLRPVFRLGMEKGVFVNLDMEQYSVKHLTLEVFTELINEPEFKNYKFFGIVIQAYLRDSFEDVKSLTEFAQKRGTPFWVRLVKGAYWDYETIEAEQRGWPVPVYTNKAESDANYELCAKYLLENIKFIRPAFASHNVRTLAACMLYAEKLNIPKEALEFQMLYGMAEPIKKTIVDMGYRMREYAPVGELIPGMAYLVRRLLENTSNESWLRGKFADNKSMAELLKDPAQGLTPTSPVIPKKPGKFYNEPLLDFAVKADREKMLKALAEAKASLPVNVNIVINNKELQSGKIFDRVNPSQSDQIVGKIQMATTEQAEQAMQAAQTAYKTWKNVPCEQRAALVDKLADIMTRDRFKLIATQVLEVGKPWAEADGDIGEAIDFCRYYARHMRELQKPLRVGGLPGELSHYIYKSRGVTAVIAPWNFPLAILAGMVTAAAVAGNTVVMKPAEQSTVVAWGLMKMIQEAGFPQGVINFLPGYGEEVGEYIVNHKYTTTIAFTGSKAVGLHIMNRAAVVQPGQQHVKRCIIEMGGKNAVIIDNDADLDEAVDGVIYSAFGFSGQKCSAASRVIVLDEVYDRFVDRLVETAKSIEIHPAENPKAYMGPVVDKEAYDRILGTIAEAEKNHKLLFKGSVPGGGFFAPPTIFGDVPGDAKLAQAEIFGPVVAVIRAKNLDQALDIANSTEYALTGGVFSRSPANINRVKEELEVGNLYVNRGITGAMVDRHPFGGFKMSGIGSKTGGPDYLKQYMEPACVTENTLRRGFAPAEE

[2] = molecular target: Desulfovibrio vulgaris proline utilization A (Desulfovibrio vulgaris str. Hildenborough); assay: SAXS
SAXS = molecular target: the molecule itself; assay: SAXS
AUC [3] = molecular target: the molecule itself; assay: AUC
AUC [4] = molecular target: the molecule itself; assay: AUC; remark: listed apart in the source

C#CCNCC(=O)O [compound 1, N-propargylglycine]
X-ray crystal structure, 2.2 Å, of the covalently inactivated enzyme [1]: 3-carbon link between Lys196 and the N5 of the FAD consistent with the presence of a covalent NPPG modification

Desulfovibrio vulgaris proline utilization A (enzyme)
stoichiometry N [2]: 2

B1: Bdellovibrio bacteriovorus proline utilization A (enzyme, Bdellovibrio bacteriovorus HD100, UniProt Q6MNK1 1-982, looked up)
chain: T1 sequence (Q6MNK1 1-982)
stoichiometry N (SAXS): 2

B2: Bdellovibrio bacteriovorus proline utilization A inactivated by N-propargylglycine (enzyme, Bdellovibrio bacteriovorus HD100, UniProt Q6MNK1 1-982, looked up)
chain: T1 sequence (Q6MNK1 1-982)
modifications: Lys196 covalently linked to the N5 atom of the FAD by a 3-carbon link (inactivation by N-propargylglycine)
stoichiometry N (AUC [3]): 2

B3: Bradyrhizobium japonicum proline utilization A (enzyme, UniProt Q89E26 1-999, looked up)
chain: MPNIPPPFTAPYAPDDAEIAARLLPASHLSPPQEARIHRTATRLIEAIRKRDDRLGGVEDMLREFALSTKEGLALMVLAEALLRVPDARTADQFIEDKLGEGDFIHHETKSTAFLVNASAWALGLSARVIQPGETPDGTIGRLVKRLGAPAVRTATRQAMRLMGNHFVLGETIEQALERGKPRSGQKTRYSFDMLGEGARTAADARRYFDAYASAIETIGKAAGNHALPDRPGISVKLSALHPRFEAISRARVMVELVPQLLDLAQRAKAHDLNFTVDAEEADRLELSLDVIAATLADPSLKGWDGFGLAIQAYQKRASAVIDYVDALARAHDRKLMVRLVKGAYWDTEIKRAQERGLDGYPVFTRKAMTDLNYVACASKLLALRPRIFPQFATHNALTVATVLEMAEGSSGFEFQRLHGMGEALYEQLAKDHADIAYRTYAPVGSHRDLLAYLVRRLLENGANSSFVAQAADYRVPVPALLQRPADAIVRPQAAAHPRIPLPCDLFAPERRNSRGVEFGARTALDQLLTDVKAETGDLKPIADATPDQAHAAVAAARAGFAGWSRTPAGIRAAALEQAAHLLESRSAHFIALLQREGGKTLDDALSELREAADFCRYYAAQGRKLFGSETAMPGPTGESNALTMRGRGVFVAISPWNFPLAIFLGQVTAALMAGNSVVAKPAEQTPRIAREAVALLHEAGIPKSALYLVTGDGRIGAALTAHPDIAGVVFTGSTEVARSINRALAAKDGPIVPLIAETGGINAMIADATALPEQVADDVVTSAFRSAGQRCSALRLLFVQEDVADRMIEMVAGAARELKIGDPSDVATHVGPVIDVEAKQRLDAHIARMKTEARLHFAGPAPEGCFVAPHIFELTEAGQLTEEVFGPILHVVRYRPENLERVLRAIERTGYGLTLGVHSRIDDSIEAIIDRVQVGNIYVNRNMIGAVVGVQPFGGNGLSGTGPKAGGPHYLARFATEQTVTINTAAAGGNAALLAGEE
stoichiometry N (AUC [4]): 4
